The series is described as follows: soluble on expression in E. coli; label from the status in PepcDB or PDB records.
For “SVGTAGISLLLLWYHKVRKPGIAMKLPEFLSLGNTFNSITLQDEIHDDQGTTVIFQERQLQILEKLNELLTNMEELKEEIRFLKEAIPKLEEYIQDELGGKITVHKISPQHRARKRRLPTIQSSATSNSSEEAESEGGYITANTDTEEQSFPVPKAFNTRVEELNLDVLLQKVDHLRMSESGKSESFELLRDHKEKFRDEIEFMWRFARAYGDMYELSTNTQEKKHYANIGKTLSERAINRAPMNGHCHLWYAVLCGYVSEFEGLQNKINYGHLFKEHLDIAIKLLPEEPFLYYLKGRYCYTVSKLSWIEKKMAATLFGKIPSSTVQEALHNFLKAEELCPGYSNPNYMYLAKCYTDLEENQNALKFCNLALLLPTVTKEDKEAQKEMQKIMTSLKR”, the “soluble on expression in E. coli” value was “soluble”.
“MSYSKPLAYPSQKCVIKHMEVNSRFKLSHQSPSIRKIEKSTPLRIDSLTLKLDQCSVKINNILHTFRKEKLPKNMQLPQAFMCLMSKLFCGRRDPIQVKTLSIECKGSLQLPAGLCLKVSHLEILGSGVDKIADDLQPLLRGSKLQSITVNNDFNIHHPIFKTAHLLILKNPNKNLFRATAASNVMVKSTCQFLDLFDKIVELIRNWQSYGQKIGAIWNFSMRQEQFALLSLVQLRKLPGASYKGHEKFSESGRSIIIPIDNSAEVHAFVKKEQDDCNLNVIVRRRQF”: the “soluble on expression in E. coli” value was “soluble”.
Under “MSTAPLENAPTPGGARFTKIYDEDGEHIITRDEHKGLEWTAHALDSRHAAGFGNLLRRSGAKKVCRELTLGGHTDWRVPEIEEAMSIGLVDTCWPANETWFWTCTPCEQEPENKAWAFEFGTGNKRIEDRRIWLHVRAVRGQMRTDATATPKAGESLEHHHHHH” stands “soluble”; under “MTDGSMDIDAMLEGGLEMAKNDRSQSRQRSPARSNRSRPSRVPIQSDVD”, “not soluble”.
Under “MIMEHEYRLEVRGYELDSFGHVNNAVYLNYLEAARWDLCSKLNLTDYNESNELFIVVIETNIKYIRELKLFDKVLIKTELTYEDDYLIFKHNIYNEVTKRKASVAKSKMVLVSKQRIIYEIPQFIKDKLDICAYGLEHHHHHH” stands “not soluble”.
Take “MAHHHHHHMTAHVDRCVFFSKMGACRHGDQCTKLHYRPDTSPTVLFPLMYPNPHAIEHIKDREWNFELDKKYLKKHFEHFYKEVWRTFMEFGRIAELRVVSNLGDHLLGNVYIRFEDPQVATRIVKELRGKKLNDIIVLPELSPVTNFAEACCKEDLENRCQRGEQCNYLHIMKVSRRLLEKLEKEQSKYWKKKERRHEHSSSDRKRSRSRSPADTRW”: the “soluble on expression in E. coli” value is “soluble”.
Under “MDQNLKEQILELKRQKNAIILAHYYQRPEVQEIADFIGDSYNLSKIAKENDADTIVFCGVKFMAESAKVLSPQKKVLLPQPKAGCPMADMADAEGLAALKAKHPNAKVVSYINSSVEVKALCDTCCTSSNAAKIVKRIDSDEIIFLPDKNLGSYVQEMVPEKNIILWDGFCKVHNMIIPTDIEEMKNKYGDMKILAHPECWKPVRDMADFIGSTGAMIDYAEKDTTSDKYLVVTETGIMYKMQERVPNKTFYPLRSMVCVNMKATHLEDVYNSLVNSTFEINIEENLRQKALTSLENMLILGRLEHHHHHH” stands “not soluble”; under “MNDTSFENCIKCTVCTTACPVSRVNPGYPGPKQAGPDGERLRLKDGALYDEALKYCINCKRCEVACPSDVKIGDIIQRARAKYDTTRPSLRNFVLSHTDLMGSVSTPFAPIVNTATSLKPVRQLLDAALKIDHRRTLPKYSFGTFRRWYRSIAAQQAQYKDQVAFFHGCFVNYNHPQLGKDLIKVLNAMGTGVQLLSKEKCCGVPLIANGFTDKARKQAITNVESIREAVGVKGIPVIATSSTCTFALRDEYPEVLNVDNKGLRDHIELATRWLWRKLDEGKTLPLKPLPLKVVYHTPCHMEKMGWTLYTLELLRNIPGLELTVLDSQCCGIAGTYGFKKENYPTSQAIGAPLFRQIEESGADLVVTDCETCKWQIEMSTSLRCEHPITLLAQALA”, “not soluble”; under “SLGSQGSGLEQSSFQWSPSGRRTGSLYCRVGIGFHLQIYPDGKVNGSHEANMLSVLEIFAVSQGIVGIRGVFSNKFLAMSKKGKLHASAKFTDDCKFRERFQENSYNTYASAIHRTEKTGREWYVALNKRGKAKRGCSPRVKPQHISTHFLPRFKQSEQPELSFTVTVPEKEG”, “soluble”.
Under “MTWLLFGAGNGVGGCLLQRAIECEQAVVLVLRNPEQAKHWREQGVTVVEGDACDPETVAEACRVAGPSAIVVSTMGGGTVNYQGHRTVIDGAEQAGIKRMLLVTSLGCGDSWPLLSPRARAAFGFAVREKSLAESWLQSSTLDHCIVRPGGLLDVVATHNAKLTQGAATLGLVSRSDVALAVDQLLQQPVFGNHIYNLIDPDLTMPAIPLEHHHHHH” stands “not soluble”; under “MQTENKTSPYYRTKLRGLYTTAKADAEAECSILRRALDKIAEIKSLLEERRIAARMAGVYSDNDPPRKTMRRGVLMTLLQQSAMTLPLWIGKPGESPPPLCGAIPASSDYVAKQGDKVAARVKAVDGDEQWILAEVVSYNHSTNKYEVDDIDEEGKERHTLSRRRIIPLPQWEANPETDPEALFSKDQLVLALYPQTTCFYRALIHTPPHRPQDDYSVLFEDTSYADGYSPPLNVAQRYVVACKENKKK”, “not soluble”; under “MGSDKIHHHHHHMKRTPLFEKHVELGAKMVDFAGWEMPLYYTSIFEEVMAVRKSVGMFDVSHMGEFLVKGPEAVSFIDFLITNDFSSLPDGKAIYSVMCNENGGIIDDLVVYKVSPDEALMVVNAANIEKDFNWIKSHSKNFDVEVSNISDTTALIAFQGPKAQETLQELVEDGLEEIAYYSFRKSIVAGVETLVSRTGYTGEDGFELMLEAKNAPKVWDALMNLLRKIDGRPAGLGARDVCRLEATYLLYGQDMDENTNPFEVGLSWVVKLNKDFVGKEALLKAKEKVERKLVALELSGKRIARKGYEVLKNGERVGEITSGNFSPTLGKSIALALVSKSVKIGDQLGVVFPGGKLVEALVVKKPFYRGSVRREV”, “not soluble”.
Take “MGHHHHHHSHMEPRVTQRKRPLDGCMGKITGITSDILKYDHKCFKLSLPAKFPEVCGSDEVFPDPDLLHVLPVAGSLQQSIDQCCLQLESLCRPGLLCAHPTLLFKLHSSMKNRPFFSLIYTYVKKTQQVRKRDRKPRGQVAAGPNPTSVM”: the “soluble on expression in E. coli” value was “not soluble”.
Under “MKSRAAVAFAPGKPLEIVEIDVAPPKKGEVLIKVTHTGVCHTDAFTLSGDDPEGVFPVVLGHEGAGVVVEVGEGVTSVKPGDHVIPLYTAECGECEFCRSGKTNLCVAVRETQGKGLMPDGTTRFSYNGQPLYHYMGCSTFSEYTVVAEVSLAKINPEANHEHVCLLGCGVTTGIGAVHNTAKVQPGDSVAVFGLGAIGLAVVQGARQAKAGRIIAIDTNPKKFDLARRFGATDCINPNDYDKPIKDVLLDINKWGIDHTFECIGNVNVMRAALESAHRGWGQSVIIGVAVAGQEISTRPFQLVTGRVWKGSAFGGVKGRSQLPGMVEDAMKGDIDLEPFVTHTMSLDEINDAFDLMHEGKSIRTVIRY” stands “soluble”.
Under “MQPERYVWAKYFWEQARDANGVARRHLGDTTRNNGAPTVGSPFVALCGIDVTPHPEDTDTARGTCFAPACMVCTTLFARATGWSAGAIGNLIQTFQWTNNDVRQLGLALGMTASQTRRQIEQWTQEADKVNKARHTAKQQKAAGR” stands “not soluble”; under “MGSDKIHHHHHHMRRTALHSSTVGIRMRRALLRGLALSLTLGGAALGQSVGDSIFPSLGQRGLDVQHYDLHLTVPRPGEPHLSGDVTLTVGAREPLSRIVLDLLGPRVSAAQWNGQRVRWVQTAQKVEVTLPRPLRPGETGRLRLIYAGTPELSGDPGLPIRPGWQNEAGLSYSLSEPHGTRGFLPCNDHPSDPATFTVRVTVPASASAAASGLFTTQTERNGLKTLTFTQRVPVPTYALGLIVGPLERRTAPDVQLGTQTVHRRDIYAAGLPAGTTVPEGETARMLRVLSDWFGPYPDEVYGVALLPVRQLALETAGLTTMPATSNRERVRLHELAHQWFGDQVTLADWADTWLSEGFATYAELLWAESQGEDGQAMAADWYARLSVLPSRPLRATREEEIFDASAYFRGALALHALRLKVGDAAFGQFLHSYVKTFTGRPVSTTALLTLVKTQLGAEAEQTLRVWVEGRTLPPLPEPVGAPV”, “not soluble”.
As for “QKKIADRLMKFEEQLPEALDIIKRVLQAGQPITQAFGEVGREVSAPLGPEFLNTFNLLNYGYDLRLAIMQMSERTPTVSMLAFSSAVLLQKETGGNLVENIEKLSHILRARFKLARKIKTISAESRMS”, the “soluble on expression in E. coli” value is “not soluble”.
